Measured values as given in PMC10279719 (2023).
Values belong to the binder of their own block, whether it stands above or below them.

Key:
Test in all cases: SPR
[1] = molecular target: T1, PEAK2^IDR1 phosphorylated by Src (human, UniProt Q86YV5 802-1406, treated with Src kinase in vitro, sites not stated; phosphorylated at the tandem site 14-3-3 motif (RAA(pS)SP) as purified; biotin (EZ-Link NHS-PEG4-Biotin))
T1 chain: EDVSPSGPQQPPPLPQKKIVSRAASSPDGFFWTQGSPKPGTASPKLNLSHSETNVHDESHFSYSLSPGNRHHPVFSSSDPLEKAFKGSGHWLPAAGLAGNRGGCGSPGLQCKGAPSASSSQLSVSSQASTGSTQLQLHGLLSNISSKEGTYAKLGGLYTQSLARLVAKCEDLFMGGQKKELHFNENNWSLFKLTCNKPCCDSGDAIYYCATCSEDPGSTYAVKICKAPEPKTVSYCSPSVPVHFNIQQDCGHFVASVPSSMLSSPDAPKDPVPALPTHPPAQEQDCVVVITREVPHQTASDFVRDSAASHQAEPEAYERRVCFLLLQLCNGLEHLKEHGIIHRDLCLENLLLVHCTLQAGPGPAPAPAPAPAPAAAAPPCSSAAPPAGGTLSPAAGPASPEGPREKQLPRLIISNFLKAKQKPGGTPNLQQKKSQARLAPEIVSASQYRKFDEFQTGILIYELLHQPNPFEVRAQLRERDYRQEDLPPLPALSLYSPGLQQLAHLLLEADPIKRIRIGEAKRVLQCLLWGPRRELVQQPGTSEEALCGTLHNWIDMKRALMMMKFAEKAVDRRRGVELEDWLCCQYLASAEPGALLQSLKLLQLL

[2] = molecular target: T2, PEAK1^IDR1 phosphorylated by Src (human, UniProt Q9H792 1082-1746, phosphotyrosine at 1107 (by Src in vitro, MS/MS); biotin (EZ-Link NHS-PEG4-Biotin))
T2 chain: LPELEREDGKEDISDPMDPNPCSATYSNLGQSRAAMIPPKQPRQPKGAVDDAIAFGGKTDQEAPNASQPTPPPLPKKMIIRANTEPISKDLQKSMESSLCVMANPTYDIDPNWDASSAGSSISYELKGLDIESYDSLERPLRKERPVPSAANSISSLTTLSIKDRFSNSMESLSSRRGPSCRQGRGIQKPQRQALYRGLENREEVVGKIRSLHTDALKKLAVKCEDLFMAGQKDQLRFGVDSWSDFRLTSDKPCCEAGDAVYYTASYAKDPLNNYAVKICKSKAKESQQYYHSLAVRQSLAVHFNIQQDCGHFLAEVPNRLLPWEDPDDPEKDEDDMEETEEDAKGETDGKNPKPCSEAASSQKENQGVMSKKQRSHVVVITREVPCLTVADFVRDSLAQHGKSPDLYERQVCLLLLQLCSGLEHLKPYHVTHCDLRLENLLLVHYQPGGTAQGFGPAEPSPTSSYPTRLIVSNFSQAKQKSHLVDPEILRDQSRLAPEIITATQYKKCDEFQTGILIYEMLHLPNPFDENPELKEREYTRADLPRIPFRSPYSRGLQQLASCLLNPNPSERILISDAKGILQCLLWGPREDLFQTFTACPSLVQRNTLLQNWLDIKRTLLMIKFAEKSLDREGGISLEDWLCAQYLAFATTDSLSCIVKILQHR

[3] = molecular target: T3, PEAK3^FL from insect cells, phosphorylated by Src (human, UniProt Q6ZS72 1-473, phosphotyrosine at 24 (by Src in vitro, MS/MS); phosphoserine at 69; biotin (EZ-Link NHS-PEG4-Biotin))
T3 chain: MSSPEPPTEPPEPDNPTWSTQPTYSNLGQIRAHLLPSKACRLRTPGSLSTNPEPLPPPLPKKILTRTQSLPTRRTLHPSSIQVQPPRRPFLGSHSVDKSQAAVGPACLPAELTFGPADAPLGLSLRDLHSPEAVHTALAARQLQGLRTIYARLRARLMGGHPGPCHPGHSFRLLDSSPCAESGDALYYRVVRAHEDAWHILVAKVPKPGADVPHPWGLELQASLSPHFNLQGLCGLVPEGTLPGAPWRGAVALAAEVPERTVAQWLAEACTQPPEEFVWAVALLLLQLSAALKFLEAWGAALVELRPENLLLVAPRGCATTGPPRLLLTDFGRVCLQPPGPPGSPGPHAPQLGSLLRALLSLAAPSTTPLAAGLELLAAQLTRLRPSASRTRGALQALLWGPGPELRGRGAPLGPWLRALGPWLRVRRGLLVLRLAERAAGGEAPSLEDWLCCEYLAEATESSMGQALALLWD

[4] = molecular target: T4, full length PEAK3 from insect cells (PEAK3^FL, S69 phosphorylated) (human, UniProt Q6ZS72 1-473, phosphoserine at 69; biotin (EZ-Link NHS-PEG4-Biotin) where immobilised for SPR)
T4 chain: T3 chain

[5] = molecular target: T5, PEAK2^IDR1 (human PEAK2 residues 802–1406) (human, UniProt Q86YV5 802-1406, phosphorylated at the tandem site 14-3-3 motif (RAA(pS)SP) as purified from insect cells; biotin (EZ-Link NHS-PEG4-Biotin) where immobilised for SPR)
T5 chain: T1 chain

B4: CrkII NSH3 domain (CrkII^NSH3, residues 134–191) (domain or fragment)
chain: AEYVRALFDFNGNDEEDLPFKKGDILRIRDKPEEQWWNAEDSEGKRGMIPVPYVEKYR
- Kd [4]: 3.9 µM
- Kd [3]: 6.8 µM
- Kd [5]: 4.8 µM

B5: 14-3-3γ (natural protein)
chain: MVDREQLVQKARLAEQAERYDDMAAAMKNVTELNEPLSNEERNLLSVAYKNVVGARRSSWRVISSIEQKTSADGNEKKIEMVRAYREKIEKELEAVCQDVLSLLDNYLIKNCSETQYESKVFYLKMKGDYYRYLAEVATGEKRATVVESSEKAYSEAHEISKEHMQPTHPIRLGLALNYSVFYYEIQNAPEQACHLAKTAFDDAIAELDTLNEDSYKDSTLIMQLLRDNLTLWTSDQQDDDGGEGNN
- Kd [3]: < 1 µM

Other lines, results leading:

- Kd [1]: 2.1 µM
B1: full length CrkII, monomer (CrkII^FL monomer) (natural protein)
chain: MAGNFDSEERSSWYWGRLSRQEAVALLQGQRHGVFLVRDSSTSPGDYVLSVSENSRVSHYIINSSGPRPPVPPSPAQPPPGVSPSRLRIGDQEFDSLPALLEFYKIHYLDTTTLIEPVSRSRQGSGVILRQEEAEYVRALFDFNGNDEEDLPFKKGDILRIRDKPEEQWWNAEDSEGKRGMIPVPYVEKYRPASASVSALIGGNQEGSHPQPLGGPEPGPYAQPSVNTPLPNLQNGPIYARVIQKRVPNAYDKTALALEVGELVKVTKINVSGQWEGECNGKRGHFPFTHVRLLDQQNPDEDFS
modifications: biotin (EZ-Link NHS-PEG4-Biotin) where immobilised for SPR

- Kd [1]: 1.4 µM
B2: full length CrkII, dimer (CrkII^FL dimer) (natural protein)
chain: B1 chain
modifications: biotin (EZ-Link NHS-PEG4-Biotin) where immobilised for SPR

- Kd [2]: 12.5 µM
- Kd [1]: 20.7 µM
- Kd [3]: 48.5 µM
B3: CrkII SH2 domain (CrkII^SH2, residues 6–120) (domain or fragment)
chain: DSEERSSWYWGRLSRQEAVALLQGQRHGVFLVRDSSTSPGDYVLSVSENSRVSHYIINSSGPRPPVPPSPAQPPPGVSPSRLRIGDQEFDSLPALLEFYKIHYLDTTTLIEPVSR
modifications: biotin (EZ-Link NHS-PEG4-Biotin) where immobilised for SPR
